The DeepSol protein solubility set

Experiment: soluble on expression in E. coli; label from the status in PepcDB or PDB records
For “STFRERLLHKNLQEHFSNQDLVFLLLTPSIITESCSTHRLEHSLYKPQKGLFHRVPLVVANLGMSEQLGYKTVSGSCMSTGFSRAVQTHSSKFFEEDGSLKEVHKINEMYASLQEELKSICKKVEDSEQAVDKLVKDVNRLKREIEKRRGAQIQAAREKNIQKDPQENIFLCQALRTFFPNSEFLHSCVMSLKNRHVSKSSCNYNHHLDVVDNLTLMVEHTDIPEASPASTPQIIKHKALDLDDRWQFKRSRLLDTQDKRSKADTGSSNQDKASKMSSPETDEEIEKMKGFGEYSRSPTF”, the “soluble on expression in E. coli” value was “not soluble”.
For “MKVKCEECGETYTLNDGEDPDDYICECGGKLKRETFLRRTALGVGVFSIP”, the “soluble on expression in E. coli” value was “not soluble”.
For “MGNWAEITDEISKIYQDNQYKIRQINDVDAVSDKRREALQALFEHTGRNVIVYYSAWLENGRRFSGQSTDFSVNDTDKNSFMTALHKLDQSKGLDLILHTPGGDVAATESLVDYIHALFGQDFRVIVPQLAMSAGTMIALSSKEIVMGKHSSLGPIDPQFNGLPAHGLLEEFEQAKKEVSENPQTAHIWQVILNKYNPTMLGEAKKAIQWSNSMVKQWLEKGMFLDEPDKEEKATRAIKELADHSVTLAHNRHISVSKALELGLNIKELESDPKLQDLVLTLHHLSVIAAQRGPLIKFVVNHDNRGTFLQGHEN”, the “soluble on expression in E. coli” value was “soluble”.
For “MHDRSYTLDDVTVAMGTYNEAAAIDTVLTDIADATDDRARVVCVDGSSDRTPEIAREHGATVIEQEPQGYGVAVAAALDAADTPVVITTDCDNTYPMERIPAFLARINEGYDVVSGDRLYWGADTMPAFNRLGNAAFAAITSLLVGERVHDTTTGMRAYRAPVIDAIDWTQNTGLSAELLIRPLCRNYDVIEEPIGYADRLGDTKLDPLEGGAEILGSILKVCAEERLPLEHHHHHH”, the “soluble on expression in E. coli” value was “not soluble”.
For “MGSDKIHHHHHHMLLTLSICNFRSFGTEATLDLQRRGFRTQHPRKDETWQENTWRRAAIFGANAAGKSNVLRALGQLKLAITHSLTNEHWVRELRDPHSLCTDEPTSFEVEYVFDDVRYRWGLTLNHSGVVEEFLEANLSSRWRRIFERTGNSLIFGSNTGISHAAKENIEQFMRPWALVFSAWNTVKTPGPFAGALQWWQTLLPVIMSNEADQHNRHQWLVQLAQKDPTWLSVLQNVVAVADVGINKIGIEEQAPDLVKKIELTIQPDGQAEITDQFDSDEITEYLRYLMFEHSDGIHTFSLPETQESQGTKAWMDLAIPALFALSVGGVLSIDEIDGSLHPLLVRELVSYFDNSELNPLGAQLLFSTHDLTLLGKYPAESLHRGEVWLVEKERSYSELIALDEFPIRDAHNIEKRYLQGTYGAVPISNTTELLHTLEVLREKYTKMKQQ”, the “soluble on expression in E. coli” value was “not soluble”.
In the case of “MSLTTYEMARILEQLDESPEKVMYGKLLNELGNQSSERIRSAAKQVPLTVLRDLVYQFQQVIESRKGEQVETMAKELAKQGISAEELLNYLQKR”, the “soluble on expression in E. coli” value is reported as “not soluble”.
With “MSLKQINIQKFITAKRIAKYSSLESYKLNILESQKYYSSLSILEVSLRNAIDFYFTERYGESWTDLLDIFKYKEISKIEEAKNFLKLKQEECTKDKIVAELNFGFCTSLFSKTYEEQMRKNNLIKIFNNLPKNKQINRAYLSRKLNNIRNFRNRIFHYEKIINKPEYLNIENDINEILEFLDKEILGFSIGLNIEGHHHHHH” the “soluble on expression in E. coli” value was “soluble”.
With “GSGVDFYDVAFKVMLVGDSGVGKTCLLVRFKDGAFLAGTFISTVGIDFRNKVLDVDGVKVKLQMWDTAGQERFRSVTHAYYRDAHALLLLYDVTNKASFDNIQAWLTEIHEYAQHDVALMLLGNKVDSAHERVVKREDGEKLAKEYGLPFMETSAKTGLNVDLAFTAIAKELKRRSMKAP” the “soluble on expression in E. coli” value was “soluble”.
In the case of “MEANTSSSGTVTGQRFAERRRSLPPGAELRQRLLKQLKELCDQIGKAYSTLVQKAALVIEPADQAVSLEPDTQRQATCITNLSDEGELWTTVYELNLGVQNLLMFIEDIRLLLLTQAQVPGPSVEENGLKTAGKGGCSPTELEGARFSDRLSSSNTHRFLEQLWDRYTP”, the “soluble on expression in E. coli” value is reported as “soluble”.
For “SATSTTIAKHIGNSNPLIDHHLGADPVALTYNGRVYIYMSSDDYEYNSNGTIKDNSFANLNRVFVISSADMVNWTDHGAIPVAGANGANGGRGIAKWAGASWAPSIAVKKINGKDKFFLYFANSGGGIGVLTADSPIGPWTDPIGKPLVTPSTPGMSGVVWLFDPAVFVDDDGTGYLYAGGGVPGVSNPTQGQWANPKTARVIKLGPDMTSVVGSASTIDAPFMFEDSGLHKYNGTYYYSYCINFGGTHPADKPPGEIGYMTSSSPMGPFTYRGHFLKNPGAFFGGGGNNHHAVFNFKNEWYVVYHAQTVSSALFGAGKGYRSPHINKLVHNADGSIQEVAANYAGVTQISNLNPYNRVEAETFAWNGRILTEKSTAPGGPVNNQHVTSIQNGDWIAVGNADFGAGGARSFKANVASTLGGKIEVRLDSADGKLVGTLNVPSTGGAQTWREIETAVSGATGVHKVFFVFTGTGTGNLFNFDYWQFTQR”, the “soluble on expression in E. coli” value was “soluble”.
With “MITDLILHNHPRMKTITLNDNHIAHLNAKNTTKLEYLNLSNNNLLPTNDIDQLISSKHLWHVLVNGINNDPLAQMQYWTAVRNIIDDTNEVTIDLSGLNLTTQPPGLQNFTSINLDNNQFTHFDATNYDRLVKLSLNSNALESINFPQGRNVSITHISMNNNALRNIDIDRLSSVTYFSAAHNQLEFVQLESCEWLQYLNLSHNQLTDIVAGNKNELLLLDLSHNKLTSLHNDLFPNLNTLLINNNLLSEIKIFYSNFCNVQTLNAANNQLKYINLDFLTYLPSIKSLRLDNNKITHIDTNNTSDIGTLFPIIKQSKTLEHHHHHH” the “soluble on expression in E. coli” value was “not soluble”.
With “MASAIWYYTVLVAESVLGIVGLRLYEEPAYTVLDRPSDTIEIRRYAPRVAAEVDLERRGNADGQAFTLLFNYIAGANRGGSGTSERVAMTVPVDVARPAKIAMTAPVETATQDRMTRMRFFLPATFTADTAPKPSDERVQIVTVPEQTIATLRFSGTGRDLREREQQLIAALANTPWQPVGAPYGLFYDAPFTLPFVRRNEAAVEVAKRLEHHHHHH” the “soluble on expression in E. coli” value was “not soluble”.
For “MHHHHHHMKEIATEYSFIKYTELELDDNGSIKQLSIPNKYNVIYAIAINDELVYIGKTKNLRKRINYYRTAINRKDKTSDSTKSALIHSALKEGSKVEFYARQCFNLSMTNELGTMTIATIDLEAPLFIKLFNPPWNIQHKKK”, the “soluble on expression in E. coli” value was “soluble”.
In the case of “MGSDKIHHHHHHMSFFKTPLIGLKADSFRHPLDLEATKTLKQIPGIDMLVRNWLGPMAEQVFYVENIASSILVGEKQLPDLYKLLLDACEILDIEPPQLYVRQHPAPNAYTFAVRGKQPFVVLHTSLIDILTPEEIQAVIAHELGHLKCDHSVYLTPVNLLILAAAIVPNVGTFVAQAIQAQLLEWVRCAEFTCDRAALLATQDPKVVMSVLMKLAGGSPTLAPQLNLDAFVAQARAYDDISKTELGEMVKTARTAQLTHPVPVLRAREIDRWASSTEYQSLIQSHGLKSTSKEVAPKGGWRNW”, the “soluble on expression in E. coli” value is reported as “not soluble”.
With “ANQPDWADEAANGAHQDAWKSLKARVENVYYMVKATYKNDPVWGNDFTCVGVMANDVNEDEKSIQAEFLFMNNADTNMQFATEKVTAVKMYGYNRENAFRYETEDGQVFTDVIAYSDDNCDVIYVPGTDGNEEGYELWTTDYDNIPANCLNKFNEYAVGRETRDVFTSACLE” the “soluble on expression in E. coli” value was “soluble”.
For “MGSDKIHHHHHHMALNLKKLPILFLSDSTTSVAISREAKAGRIRKIGPRLYTSNTSDDPAYIIRQNWLQALTLLFPGCVVSNRTALESRVSPAGRVYVTGDYARTLELHGTKFVQVKGSPPVEGDTPLLGIFMASRARALLENLTPSRERSGGELKNLPREMIERRLAELLNVEKEDSVNRLRDQARQIAPLLGLEKEFDELDDLIGTLLRTRKATLADPVAKAHQLGTPYDPHALERVETLWSVLASMPHNYRPTNAGTGTPFYTVSFFDAYFSNYIEGTRFKVDEAKEIVDSGVIPAIRPADGHDILGTYRVVSSLENMRRTPKNPDEFIELLQSRHADIMVGRPDKRPGEFKEEVNYAGATRFVDPDLVRGTLSQGFSLYKSLEHPFARALLIMFLVAEVHPFDDGNGRAARAMMNSELITAEETRIIIPSVFRNEYVASLKRMTNHLQPESFISVMSFAQEFVSRISFDSYASARVQMEGCNAFDDPADDKRLLQPSIS”, the “soluble on expression in E. coli” value was “not soluble”.
For “MGVMNKGDSVEKCYMCDAEGNTKEHVPPKCIFPEAKDVPSGDNYKKNLITVRSCEKHNTAKSKDDVYLLFFLAANVVSNDLAQTQFGTKIMRAVNRTPHVFAQFAKKNTPVTLKGENGELIHTAAIEIDRARFDAAIEHISHALHYHKYGETFIGDIQVITSGLVDLSSIDSVEVNDRIQNFGQMVDELLADVEPEGDNPEVFTYKVLKTDEPHQVIIQMNFYGGFKIVSIMKYS”, the “soluble on expression in E. coli” value was “not soluble”.
With “MHPGIDSMSSNINCENNPFSFYGNPHKSVIIHGKEGTELLKEKGEDCKTFENSQQYFLWCCVQQQMYHYQLLSTAFASYGFEPPRIPGAFPHHIPPIFNGSMKCLRDREVFNQSGFLYVNVSPDTYQETRQEAPVEQRNQWSEKSKTTSKKSICKVLFECTNSSLLENAENRSIFSKQGSGSHVGENSKNPSEDSGQSGRLSQNATAEHNVLEKHLQEEYQMAKNTVNESFDSLKECSAASVIKGSYLLSQVVHIPEDAIEPEIPPDLQGPGGHVFLRMLSRSWRQYKRALEHNE” the “soluble on expression in E. coli” value was “not soluble”.
For “MSLKVKSIKAITLSMPFSHGGKKVIFHGKEWKSLEFNLIRLETDKGIVGWGEAFGFSSWKAVRVAIEEMVAPMIIGKDMSNIPELLLNLQKSLHLFGRYGITMFAISGVEIALWDAFGKEKNKPVHELLGKKNNDIFKAYSSLFRYGDPKIIEQKCKQSLDDGYRAIKLHEIENNCIEAGRKGTGDLPMMLDTNCPWTYEQTLAKKDFLKSMNLTWLEEPIYPPEDYQTLAKLNKELGIPLACGENACTEYEFKSMIDHKAVSFVQPSVIKVGGIYEMFKIINIAEDKNISVMPHTAYFGPGFLATLQLAALMKKETYIERFYLDIDEEFYPNFKKALNGKYNLPKGPGLGIDLDYKRLSKYEIEGHHHHHH”, the “soluble on expression in E. coli” value was “soluble”.
For “MGSDKIHHHHHHMRVLAAMSGGVDSAVAAARAVEAGHDVVGVHLALSRMPGTLRTGSRGCCTIEDSRDAWRACDVLGIPYYVWDFSERFKEDVVQDFIDEYAAGRTPNPCMRCNERIKFAALLEKAIALGFDAVCTGHYAKVITDADGNPELHRAADWAKDQSYVLGVLTHEQLKHSMFPLADTPSKAEVRAEAERRGLSVANKPDSHDICFIPDGDTAGWLAEKIEMTTGDIVDEAGTKVGEHPGANAFTVGQRRGLKLGTPAADGKPRFVLEIRPKENKVVVGPEALLAIDEIRGIKVSWAGLPIAEVATGDEFDCHAQVRAHGDPVPATARMERLTDDDGAERTNLVVTLATPLRGVAPGQTVVLYQGSRVLGQATIDTARSLQRAAL”, the “soluble on expression in E. coli” value was “not soluble”.
For “MGSDKIHHHHHHLGIYVNPTGRSFELAINSEIFVDKSGLIKETNKCINTLQRYMCVSRPRRFGKSMAMDMLSAYYGRKTDAENLFKGLKISHDESYDRHINKYDVLKINMQDFLSVTHSVDDMLKMLCEYITDDFSIECKDIIFRDKSNIVRVMQDVFMSTGRPFVILIDEWDCLFREFTQDKEAQKKYLDFLRGWLKDKDYIALAYMTGILPIKKYGSHSALNMFTEYSMTDMGALAEYFGFTDDEVRELCDRYDMDFEEARAWYNGYKLVSHSKYGVKKYAMYSPKSVVEAMLKHKFGTYWNQTETYEALKVYIQMNMDGLKDAVIKMLAGESEKINTGTFENDMTSFATKDDVLTLLVHLGYLTYDSETEEVSIPNREVSKEYLNAISTMDWDEVSKSIKASQKLLESLWNMNGAAVADGIDKAHNEISILRYNDENSLSCTINLAFYSAREYYSIVRELPTGKGFADVCFIPRVSHLDKPAVVIELKYDKNVDGAISQIKSRQYVEALKDYKGNLLLVGINYDKKTKEHQCVIEKWKL”, the “soluble on expression in E. coli” value was “not soluble”.
